Test results taken from patent publication US20250215083A1 (JIANGSU HENGRUI PHARMACEUTICALS, published 2025).
Residue numbers refer to the chain shown, from its start. No end group written: not given here.

B1: F4-6 (bispecific antibody)
heavy 1: not shown
light 1: not shown
heavy 2: EVQLVQSGAEVKKPGASVKVSCKVSGYTFTDYPIHWMRQAPGQGLEWMGYVFPRDGSTKYNEKFRVRVTWTADKSTSTVYMELSSLRSEDTAVYYCSRELTAYWGQGTTVTVSSASTKGPSVFPLAPSSKSTSGGTAALGCLVKDYFPEPVTVSWNSGALTSGVHTFPAVLQSSGLYSLSSVVTVPSSSLGTQTYICNVNHKPSNTKVDKKVEPKSCDKTHTCPPCPAPEAAGGPSVFLFPPKPKDTLMISRTPEVTCVVVDVSHEDPEVKFNWYVDGVEVHNAKTKPREEQYNSTYRVVSVLTVLHQDWLNGKEYKCKVSNKALPAPIEKTISKAKGQPREPQVCTLPPSRDELTKNQVSLSCAVKGFYPSDIAVEWESNGQPENNYKTTPPVLDSDGSFFLVSKLTVDKSRWQQGNVFSCSVMHEALHNHYTQKSLSLSPGK
light 2: DVVLTQSPLSLPVTLGQPASISCKSSQSLLHSSGKTYLNWLLQRPGQSPRRLIYLVSKLDSGVPDRFSGSGSGTDFTLKISRVEAEDVGVYYCAQGTHFPRTFGGGTKVEIKRTVAAPSVFIFPPSDEQLKSGTASVVCLLNNFYPREAKVQWKVDNALQSGNSQESVTEQDSKDSTYSLSSTLTLSKADYEKHKVYACEVTHQGLSSPVTKSFNRGEC
notes: formula 4
B2: F2-0G4S-1 (bispecific antibody)
heavy 1: not shown
light 1: DVVMTQTPLSLSVTPGQPASISCRSSQSLVHSQGNTYLYWYLQKPGQSPKLLIYKVSNRFSGVPDRFSGSGSGTDFTLKISRVEAEDVGVYYCSQSTHVPPLTFGQGTKLEIKRTVAAPSVFIFPPSDEQLKSGTASVVCLLNNFYPREAKVQWKVDNALQSGNSQESVTEQDSKDSTYSLSSTLTLSKADYEKHKVYACEVTHQGLSSPVTKSFNRGEC
heavy 2: not shown
light 2: not shown
notes: formula 2-0G4S
B3: F2-1 (bispecific antibody)
heavy 1: not shown
light 1: B2 light 1
heavy 2: not shown
light 2: not shown
notes: formula 2
B4: HJ-5 (bispecific antibody)
chain 1: not shown
chain 2: DIQMTQSPSSVSASVGDRVTITCRASQDIANYLSWYQQKPGKSPKLLIYGTSNLEVGVPSRFSGSRSGTDFTLTISSLQPEDFATYYCLQDKEFPRTFGGGTKVEIKGGGGSSGAPRFLTRPKASVVSVGKDATLSSQIVGNPFPQVSWEKDKQPVTAGVRFRLAQDGDLYRLKILDLQLSDSGQYVSRARNAHGEAFACLGLQVDAEA
chain 3: EVQLVQSGAEVKKPGSSVKVSCKASGYTFSNYLIEWVRQAPGQGLEWIGVIDPGVGDTNYNENFKGRATLTADKSTSTAYIELSSLRSEDTAVYYCAREDNTGTAFDYWGQGTTVTVSSASTKGPSVFPLAPSSKSTSGGTAALGCLVKDYFPEPVTVSWNSGALTSGVHTFPAVLQSSGLYSLSSVVTVPSSSLGTQTYICNVNHKPSNTKVDKKVEPKSCDKTHTCPPCPAPEAAGGPSVFLFPPKPKDTLMISRTPEVTCVVVDVSHEDPEVKFNWYVDGVEVHNAKTKPREEQYNSTYRVVSVLTVLHQDWLNGKEYKCKVSNKALPAPIEKTISKAKGQPREPQVCTLPPSREEMTKNQVSLSCAVKGFYPSDIAVEWESNGQPENNYKTTPPVLDSDGSFFLVSKLTVDKSRWQQGNVFSCSVMHEALHNHYTQKSLSLSPGK
chain 4: SIVMTQTPLSLSVTPGQPASISCKASQSVSSDVTWYLQKPGQSPQLLIYYVSEHYTGVPDRFSGSGYGTDFTLKISRVEAEDVGVYYCQQHHRFPLTFGQGTKLEIKRTVAAPSVFIFPPSDEQLKSGTASVVCLLNNFYPREAKVQWKVDNALQSGNSQESVTEQDSKDSTYSLSSTLTLSKADYEKHKVYACEVTHQGLSSPVTKSFNRGEC
B5: HJ-11 (bispecific antibody)
chain 1: not shown
chain 2: B4 chain 2 with G108R, G109T, G110V, G111A, A115C, S137C, S188C
chain 3: B4 chain 3
chain 4: B4 chain 4
B6: HJ-10 (bispecific antibody)
chain 1: not shown
chain 2: B4 chain 2 with G108R, G109T, G110V, G111A, S137C, S188C
chain 3: B4 chain 3
chain 4: B4 chain 4
B7: HJ-7 (bispecific antibody)
chain 1: not shown
chain 2: B4 chain 2 with S137C, S188C
chain 3: B4 chain 3
chain 4: B4 chain 4
B8: HJ-6 (bispecific antibody)
chain 1: not shown
chain 2: B4 chain 2 with R121C
chain 3: B4 chain 3
chain 4: B4 chain 4
B9: HJ-8 (bispecific antibody)
chain 1: not shown
chain 2: B4 chain 2 with G108R, G109T, G110V, G111A
chain 3: B4 chain 3
chain 4: B4 chain 4
B10: HJ-9 (bispecific antibody)
chain 1: not shown
chain 2: B4 chain 2 with G108R, G109T, G110V, G111A, R121C
chain 3: B4 chain 3
chain 4: B4 chain 4

Experiments:
human GIPR = target: T1, human GIPR (human, UniProt P48546 22-466); assay: FACS, CHOK1-human GIPR cells
T1 construct: on CHOK1-human GIPR cells
T1 sequence: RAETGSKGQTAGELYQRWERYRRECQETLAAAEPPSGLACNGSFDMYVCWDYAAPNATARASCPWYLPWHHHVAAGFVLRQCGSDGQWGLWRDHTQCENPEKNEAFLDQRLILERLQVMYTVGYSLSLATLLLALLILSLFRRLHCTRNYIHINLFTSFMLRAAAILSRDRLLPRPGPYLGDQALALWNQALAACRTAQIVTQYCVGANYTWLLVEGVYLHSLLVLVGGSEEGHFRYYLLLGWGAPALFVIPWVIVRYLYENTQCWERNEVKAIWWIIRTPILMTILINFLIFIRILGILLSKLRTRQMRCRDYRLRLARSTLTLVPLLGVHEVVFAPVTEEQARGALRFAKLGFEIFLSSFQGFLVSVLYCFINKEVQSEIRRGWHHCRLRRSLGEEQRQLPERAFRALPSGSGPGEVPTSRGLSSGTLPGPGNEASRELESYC
Text: (§1) To determine whether the GPRC5D/CD3 bispecific antibodies of the present disclosure cross-bind to the GPCRA and GPCRB family members, a flow cytometry assay was used in this test example to measure the capacity of the GPRC5D/CD3 bispecific antibodies to bind to CHOK1-human CCR8 cells expressing CCR8 (the GPCR A family) (constructed with reference to Example 2) and CHOK1-human GIPR cells expressing human GIPR (the GPCR B family) (constructed with reference to Example 2). The specific procedure was as follows: The cells described above were cultured in DMEF/12K culture medium containing 10% FBS, incubated in a 37° C., 5% CO₂ incubator for 2 days, and added to a cell plate at 1×10⁵ cells/well. The plate was centrifuged at 300 g for 5 min and washed once with 1% BSA. The antibodies were serially diluted to 8 concentrations and added to the cell plate at 100 μL/well. The plate was incubated at 4° C. for 1 h and washed once with 1% BSA. […] The plate was washed three times with 1% BSA, PBS was added at 100 μL/well, and plate reading was performed.

human CCR8 = target: T2, human CCR8 (human, UniProt P51685 1-355); assay: FACS, CHOK1-human CCR8 cells
T2 construct: on CHOK1-human CCR8 cells
Text: as §1

[1] = target: T3, E4 peptide of human GPRC5D (human, also: biotinylated, site not given here, made with and without intramolecular disulfide bonds); assay: peptide ELISA; note: - indicates no detectable binding
T3 peptide: RGNPQFQRQPQWDDC
Text: (§2) To determine the epitope of GPRC5D to which the GPRC5D/CD3 bispecific antibodies of the present disclosure bind, 4 extracellular domain peptides of human GPRC5D were synthesized, including an amino-terminal peptide (N-terminal peptide), an E2 peptide, an E3 peptide, and an E4 peptide (synthesized by GenScript). The peptides were biotinylated and made into two forms: one lacked intramolecular disulfide bonds and the other included intramolecular disulfide bonds. An Elisa plate (Corning 3590) was coated with streptavidin (sigma, SA101), left to stand at 37° C. for 2 h, and then washed. The non-specific binding sites were blocked with PBS containing 5% skim milk, and the plate was left to stand at 37° C. for 2 h and then washed. The peptides, diluted in PBS containing 1% BSA, were added at 100 μL/well, and the plate was left to stand at 37° C. for 1 h and then washed. Subsequently, the GPRC5D/CD3 antibodies, diluted in PBS containing 1% BSA to 0.003 nM-300 nM, were added at 100 μL/well, and the plate was left to stand at 37° C. for 1 h and then washed. […] TMB (KPL, 5120-0077) was added at 100 μL/well. After 5 min of color development, 1 M H₂SO₄ was added to stop the reaction, and the OD₄₅₀ was measured.

[2] = target: T4, E2 peptide of human GPRC5D (human, also: biotinylated, site not given here, made with and without intramolecular disulfide bonds); assay: as above
T4 peptide: NQQTAPVRYC
Text: as §2

[3] = target: T5, E3 peptide of human GPRC5D (human, biotinylated; made with and without intramolecular disulfide bonds); assay: as above
T5 peptide: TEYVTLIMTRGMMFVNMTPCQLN
Text: as §2

[4] = target: T6, N-terminal peptide of human GPRC5D (human, biotinylated; made with and without intramolecular disulfide bonds); assay: ELISA, biotinylated peptide on streptavidin
T6 construct: synthesized by GenScript; captured on streptavidin; also called amino-terminal peptide
T6 peptide: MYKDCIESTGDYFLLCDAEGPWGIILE
Text: as §2

human GPRC5D = human GPRC5D (human, UniProt Q9NZD1 1-345); assay: cell-based or functional assay
hIL5 = hIL5 (human, UniProt P05113 20-134); assay: ELISA per WO2021139758 Test Example 4
hTSLP = hTSLP (human, UniProt Q969D9 29-159); assay: ELISA per WO2021139758 Test Example 4

Binder	binding result (human GIPR)	binding result (human CCR8)	EC50 (hIL5) [nM]	EC50 (hTSLP) [nM]	further results
B1	no binding	no binding			
B2	no binding	no binding			binding result [1]: no binding (tested: 0.003 nM-300 nM); binding result [2]: no binding (tested: 0.003 nM-300 nM); binding result [3]: no binding (tested: 0.003 nM-300 nM); EC50 [4]: 0.392 nM; EC50 ratio (relative to JNJ-64407564), cytotoxic activity against NCI-H929 (human GPRC5D): 0.57; Lysis rate %, cytotoxic activity against NCI-H929 (human GPRC5D): 91.5%
B3	no binding	no binding			
B4			16	2.64	
B5			9.46	3	
B6			20.8	3.17	
B7			17.7	2.18	
B8			37	2.88	
B9			18.7	3.33	
B10			10.9	3.18	
